Data set [1] in a line: Flag-PD-L1 IP with HA-Ub, Western blot. The settings on record: glycan gained; control: control-transfected HepG2 (vector / siNC), MG132.
The nature of the next data set: Western blot of PD-L1. Particulars: glycan lost; control: untreated HepG2 cells.

PD-L1: GALNT16 overexpression: the “other: ubiquitination” value in data set [1] is given as “decreases”.

As for PD-L1: tunicamycin (2 µg/mL, 18 h), the expression_or_secretion result in the data set “Western blot of PD-L1” is “decreases”.

The record behind these values is paper PMC12658286.
